In US20180364250A1 (published 2018):
Read-outs that look alike come from different tables or passages of the source.

Key:
[1] = target: T1, Ubiquitin (free, untagged) (UniProt P0CG48 1-76); assay: fluorescence intensity
[2] = target: T1, Ubiquitin (free, untagged)
K63 Ub2 = assay: fluorescence competition with 5 nM Atto532-Ub(S20C) and 600 nM tSR
K48 Ub4 = assay: as above
K11 Ub2 = assay: as above
[3] = target: T1, Ubiquitin (free, untagged); assay: competition

B1: Atto532-tagged tIV L1 Cys (designed binder)
chain: MGSSHHHHHHSSGLVPRGSHMKQEVQAWDGEVRQVSKHAFSLKQLDNPARIPPSGWKCSKCDMRENLWLNLTDGSILCGRRYFDGSGGNNHAVEHYRETGYPLAVKLGTITPDGADVWSYDEDDMVLDPSLAEHLSHFGIDMLKMQKGSCAAAEEAELDLKAAIQESLREA
modifications: Atto532 fluorophore on the Cys of linker 1 (the bold C of the 2nd table)
- Kd [1]: 0.587 µM

B2: Atto532-tagged IsoT^ZnF (S227C) (designed binder)
chain: MPSSHHHHHHSSGLVPRGSHMKQEVQAWDGEVRQVSKHAFSLKQLDNPARIPPSGWKCSKCDMRENLWLNLTDGSILCGRRYFDGCGGNNHAVEHYRETGYPLAVKLGTITPDGADVYSYDEDDMVLDPSLAEHLSHFGIDMLKMQK
modifications: Atto532 fluorophore on the Cys of S227C (the bold C of the 2nd table)
- Kd [2]: 8.4 µM

B3: tSR (designed binder)
chain: MPSSHHHHHHSSGLVPRGSHMTEEEQIAYAMQMSLREAGGGSDLLCKKGCGYYGNPAWQGFCSKCWREEAHKCAAERAAAE
- Ki (K63 Ub2): 4.3 µM
- Ki (K48 Ub4): 4 µM
- Ki (K11 Ub2): 4.2 µM

B4: tSR chimeric polypeptide sensor (designed binder)
chain: MPSSHHHHHHSSGLVPRGSHMTEEEQIAYAMQMSLREAGGGSDLLCKKGCGYYGNPAWQGFCSKCWREEAHKCAAERAAAE
- Ki [3]: 4.3 µM
